Measurements as given in patent US6693079.
Positions of bridges follow the written chain, without caps; N, C: chain ends. No end group written: not given here.

T1: recombinant human IGFBP-1 (human, UniProt P08833 26-259)
T1 construct: Plate-coated, biotinylated or coupled to a dextran chip, depending on the assay; also called rhIGFBP-1; biotinylated IGFBP-1
T1 sequence (looked up): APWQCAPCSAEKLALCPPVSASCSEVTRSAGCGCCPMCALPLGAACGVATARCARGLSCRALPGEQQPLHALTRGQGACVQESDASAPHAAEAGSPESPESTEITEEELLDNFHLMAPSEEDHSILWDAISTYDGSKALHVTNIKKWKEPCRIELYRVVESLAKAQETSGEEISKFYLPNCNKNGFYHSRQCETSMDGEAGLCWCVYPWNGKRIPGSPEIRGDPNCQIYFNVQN

B1: bp1-19 (peptide)
peptide: SEMVCRAGPLQWLCEIYF-NH2
modifications: disulfide 5-14 (inferred)
notes: Peptide from g3 bp1-01 secondary libraries
B2: bp1-21A (peptide)
peptide: SEVGCRAGPLQWLCEKYFSTY-NH2
modifications: disulfide 5-14 (inferred)
notes: as for B1
B3: bp1-20 (peptide)
peptide: EARVCRAGPLQWLCEKYF-NH2
modifications: disulfide 5-14 (inferred)
notes: as for B1
B4: bp1-21B (peptide)
peptide: CRAGPLQWLCEKYFSTY-NH2
modifications: disulfide 1-10 (inferred)
notes: as for B1
B5: bp1-12 (peptide)
peptide: CKEGPLQWLCEKYF
notes: Peptide from g8 bp1-01 secondary libraries
B6: bp1-13 (peptide)
peptide: CKEGPLLWLCEKYF
notes: as for B5
B7: bp1-10 (peptide)
peptide: CRKGPLQWLCELYF
notes: as for B5
B8: bp68 (peptide)
peptide: CRAGPLQWLCEKFF
notes: as for B5
B9: bp1029 (peptide)
peptide: CREGPLQWLCERFF
notes: as for B5
B10: bp1-11 (peptide)
peptide: CRKGPLQWLCEKYF
notes: as for B5
B11: bp1-15 (peptide)
peptide: CAAGPLQWLCEKYF
notes: as for B5
B12: bp1028 (peptide)
peptide: CRAGPLQWLCERFF
notes: as for B5
B13: bp1027 (peptide)
peptide: CKAGPLLWLCERFF
notes: as for B5
B14: bp1030 (peptide)
peptide: CKEGPLLWLCERFF
notes: as for B5

Biological target: T1, recombinant human IGFBP-1
Test: BIAcore competition assay or ELISA plate assay

Binder	binding result
B1	binds
B2	binds
B3	binds
B4	binds

Biological target: T2, recombinant human IGFBP-3 (human, UniProt P17936 28-291)
T2 construct: also called rhIGFBP-3; biotinylated IGFBP-3
T2 sequence (P17936 28-291 limits assumed): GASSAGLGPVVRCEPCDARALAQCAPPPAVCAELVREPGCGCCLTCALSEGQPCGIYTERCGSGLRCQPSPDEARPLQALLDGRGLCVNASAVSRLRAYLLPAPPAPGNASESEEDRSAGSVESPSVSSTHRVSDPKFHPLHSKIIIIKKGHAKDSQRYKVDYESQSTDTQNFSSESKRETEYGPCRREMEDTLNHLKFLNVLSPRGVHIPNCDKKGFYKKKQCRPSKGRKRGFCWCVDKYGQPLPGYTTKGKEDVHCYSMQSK
Test: BIAcore competition assay

Binder	binding result
ASEEVCWPVAEWYLCNMWGR [4d3.3 (peptide)]	binds
CWPVAEWYLCN [bp3-25 (SEQ ID NO:106)]	binds
GPETCWPVAEWYLCN (bp3-01-ox variant) [bp3-41]	binds
EVCWPVAEWYLCN (bp3-01-ox variant) [bp3-27]	binds
ASEEVCWPVAEWYLCN (bp3-01-ox variant) [bp3-30]	binds
EEVCWPVAEWYLCN (bp3-01-ox variant) [bp3-28]	binds

Biological target: T1, recombinant human IGFBP-1
Test: ELISA competition, C-terminal bp1-01 variants

Binder	binding result
CRAGPLQWLCEKAA (C-terminal variant of bp1-01) [bp1-18]	binds

Biological target: T1, recombinant human IGFBP-1
Test: ELISA plate assay or BIAcore competition, IGF-I inhibition

Binder	binding result
B5	binds
B6	binds
B7	binds
B8	binds
B9	binds
B10	binds
B11	binds
B12	binds
B13	binds
B14	binds
